# Source: article PMC9905591, “A single point mutation expands the applicability of ostreolysin A6 in biomedicine” (Scientific Reports, 2023)
# T1: Ostreolysin A6 (Pleurotus ostreatus, UniProt P83467 1-138)
# T1 sequence: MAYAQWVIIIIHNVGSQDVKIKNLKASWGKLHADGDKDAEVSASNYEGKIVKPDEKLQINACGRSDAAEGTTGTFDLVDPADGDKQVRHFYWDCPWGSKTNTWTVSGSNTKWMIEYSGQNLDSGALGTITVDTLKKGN
# B1: Δ48PlyB (pleurotolysin B) (domain or fragment, Pleurotus ostreatus, UniProt Q5W9E8 49-523, looked up)
# chain: SQAGDTLNDVIQDPTRRNKLINDNNLLKGIIMGRDGPVPSSRELIVRPDTLRAIINNRATIETTTMEAEFTETLMESNYNSASVKVSAPFITANSEYSESSSFKNTETEKSMYTSSRYLFPQGRIDFTTPDSGFDDVIKLSPQFTSGVQAALAKATGTEKREALQNLFQEYGHVFRTKVHIGGVLSAHTMETFSRSENETEVKQDVKAGLEGAVKGWGGGATAGHGNTQGTITTSQNRKLNVKYIVNGGDYTKIQNTEEWVASTNQSEHWRVIEVTEVTAVADLLPQPIRGQVKDLLKPLLGKWVDVEKVPGLESLPVSVYRPKGAIPAGWFWLGDTADASKALLVKPTLPARSGRNPALTSLHQGSGMTEQPFVDLPQYQYLSTYFGSFAHDTPPGSTLRGLRPDHVLPGRYEMHGDTISTAVYVTRPVDVPFPEDECFDLKSLVRVKLPGSGNPPKPRSALKKSMVLFDSGEK
# Biological target: T1, Ostreolysin A6
# Assay: cell-based or functional assay
binder,measurement,value
B1,"hazard ratio against buffer, Kaplan-Meier survival of Colorado potato beetle larvae on OlyA6/PlyB-treated leaf discs",3.5
